Paper PMC7228087, “Atco, a yeast mitochondrial complex of Atp9 and Cox6, is an assembly intermediate of the ATP synthase” (PLoS ONE, 2020)

Target: T1, Cox6 with a tandem hemagglutinin plus protein C tag (S. cerevisiae, UniProt P00427 41-148)
T1 construct: Cox6, nuclear-encoded imported structural subunit of cytochrome oxidase, S. cerevisiae; also called Cox6-HAC; COX6-HAC; source: expressed in S. cerevisiae (cox6::URA3 trp1::pG71/ST9), in digitonin extract of mitochondria
T1 sequence (looked up): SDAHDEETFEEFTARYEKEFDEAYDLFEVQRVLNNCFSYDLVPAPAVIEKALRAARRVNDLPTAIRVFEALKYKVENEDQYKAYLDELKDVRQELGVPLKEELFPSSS
Experiment: co-IP; as a1 but from an oxa1 null mutant expressing Cox6-HAC; radiolabel quantified as ratio to the OXA1 strain
Settings: partners not purified

B1: Atp9 (natural protein, UniProt P61829 1-76, looked up)
chain: MQLVLAAKYIGAGISTIGLLGAGIGIAIVFAALINGVSRNPSIKDTVFPMAILGFALSEATGLFCLMVSFLLLFGV
notes: Atp9, mitochondrially encoded subunit of the ATP synthase ring, S. cerevisiae; wild type with native cysteine at residue 65; The introduction says that the ring of the ATP synthase has 10 copies of Atp9; In Atco the protein is oligomeric but not a ring; also called A9; Atp9 ring; source: submitochondrial particles for Western blots
ratio (Δoxa1/OXA1) of radiolabel in the PC eluate, SDS-PAGE: 0.124 ratio
